How the values were obtained:
FPRL2 [1] = biological target: T1, FPRL2 (Homo sapiens, UniProt P25089); experiment: aequorin-based functional assay on FPRL2-expressing CHO-K1 cells; settings: aequorin assay (FMLP, SHAAG: aequorin and cAMP assays)
T1 sequence (P25089 1-353): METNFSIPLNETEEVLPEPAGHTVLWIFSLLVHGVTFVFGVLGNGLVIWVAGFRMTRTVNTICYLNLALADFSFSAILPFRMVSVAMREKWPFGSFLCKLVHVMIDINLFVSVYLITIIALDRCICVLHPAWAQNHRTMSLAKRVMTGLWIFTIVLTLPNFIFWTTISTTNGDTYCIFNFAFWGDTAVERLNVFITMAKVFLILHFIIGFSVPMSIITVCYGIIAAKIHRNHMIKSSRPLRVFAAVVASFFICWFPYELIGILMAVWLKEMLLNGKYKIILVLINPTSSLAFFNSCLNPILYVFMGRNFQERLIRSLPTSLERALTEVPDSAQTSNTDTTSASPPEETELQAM

FPRL2 [2] = biological target: T1, FPRL2; settings: not depicted

NSLFGSVETWPWQVL [F2L[7–21]]
activity on FPRL2 (FPRL2 [1]): totally inactive | activity in FPRL2 binding assay (FPRL2 [2]): totally inactive
